From patent publication US20170342107A1
Square brackets hold non-standard residues; d marks the D form. Phe(4-I) = N[C@@H](Cc1ccc(I)cc1)C(=O)O

Tests used:
[1] = target: mouse melanocortin-3 receptor (mouse) (UniProt P33033); assay: cell-based or functional assay
[2] = target: mouse melanocortin-4 receptor (mouse) (UniProt P56450); assay: cell-based or functional assay
[3] = target: mouse melanocortin-3 receptor (mouse) (UniProt P33033); assay: 125I-NDP-MSH competitive displacement, HEK293 cells stably expressing mMC3R
[4] = target: mouse melanocortin-4 receptor (mouse) (UniProt P56450); assay: 125I-NDP-MSH competitive displacement, HEK293 cells stably expressing mMC4R
[5] = target: mouse melanocortin-4 receptor (mouse) (UniProt P56450); assay: 125I-NDP-MSH competitive displacement, HEK293 cells stably expressing mMC4R; here negative = weaker binder than SKY4-48-1

Sequence of mouse melanocortin-4 receptor (mouse) (P56450 whole entry): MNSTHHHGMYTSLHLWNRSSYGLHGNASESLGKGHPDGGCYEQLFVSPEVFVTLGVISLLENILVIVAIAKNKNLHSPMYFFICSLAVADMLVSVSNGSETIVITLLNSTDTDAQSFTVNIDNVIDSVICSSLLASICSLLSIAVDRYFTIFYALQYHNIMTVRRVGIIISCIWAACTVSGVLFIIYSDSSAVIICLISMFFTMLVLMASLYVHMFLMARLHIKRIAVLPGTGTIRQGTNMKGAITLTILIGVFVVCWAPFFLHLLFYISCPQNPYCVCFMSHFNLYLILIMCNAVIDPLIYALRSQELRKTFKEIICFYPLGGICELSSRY
Sequence of mouse melanocortin-3 receptor (mouse) (P33033 whole entry): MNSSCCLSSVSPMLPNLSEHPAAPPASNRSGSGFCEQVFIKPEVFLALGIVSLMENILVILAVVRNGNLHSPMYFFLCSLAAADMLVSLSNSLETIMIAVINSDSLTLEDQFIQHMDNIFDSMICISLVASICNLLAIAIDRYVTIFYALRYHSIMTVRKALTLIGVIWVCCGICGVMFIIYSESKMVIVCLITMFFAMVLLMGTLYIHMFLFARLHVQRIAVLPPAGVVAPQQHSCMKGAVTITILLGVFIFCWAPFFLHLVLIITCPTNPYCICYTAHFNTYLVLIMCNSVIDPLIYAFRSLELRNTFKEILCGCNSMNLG

B1: SKY5-122-2, Ac-DPhe-(pI)Phe-DArg-DHis-NH2 (peptide)
peptide: Ac-[dF][Phe(4-I)][dR][dH]-NH2
SMILES: CC(=O)N[C@H](Cc1ccccc1)C(=O)N[C@@H](Cc1ccc(I)cc1)C(=O)N[C@H](CCCNC(=N)N)C(=O)N[C@H](Cc1c[nH]cn1)C(N)=O
With B1 the Agonist Activity EC50 [1] was greater than 100 µM, the Antagonist Activity K [1] was 400 nM and the Antagonist Ki [1] was 0.398 µM. For the same binder, the pA2 (antagonist) [1] was 6.4 pA2, the Agonist Activity, % stimulation relative to maximum [2] was 16 % @ 100 µM and the Agonist, % of NDP-MSH maximal response [2] was 16 % @ 100 µM. For the same binder, the Antagonist Ki [2] was greater than 3.1 µM, the Fold Diff. (IC50 against SKY4-48-1) [3] was 14 fold and the IC50 [3] was 3.5 µM. For the same binder, the IC50 [4] was 39.5 µM and the Fold Diff. (IC50 against SKY4-48-1) [5] was -326 fold.
